Data taken from patent US20260207767A1 (ANAVEON, published 2026).
Like-named read-outs stand apart in the source and are kept apart here.

Assays:
[1] = target: T1, cynomolgus PD-1 expressed on cells (cynomolgus monkey, UniProt B0LAJ3 25-288); assay: flow cytometry, HEK293 cyPD1
T1 construct: also called CHO-S Cyno-PD-1; 293:cyPD1

[2] = target: T2, cynoPD-1 His (AcroBiosystems PD1-C5223) (cynomolgus monkey, UniProt B0LAJ3 25-170); assay: BLI (legend: SPR), Ab on sensor
T2 construct: also called cPD-1; cynomolgus PD-1 His-tagged

hPD-1 His-tagged = target: T3, hPD-1 His-tagged (human, UniProt Q15116 25-167); assay: BLI (legend: SPR), Ab on sensor
T3 construct: also called recombinant hPD-1 (AcroBio)

[3] = target: T4, human PD-1 expressed on cells (human, UniProt Q15116 25-288); assay: flow cytometry, HEK293 huPD1
T4 construct: whole, on cells; cell line named under assay; also called CHO-S hPD-1; Raji PD-1

[4] = target: T5, recombinant cynoPD-1 (construct not stated) (cynomolgus monkey, UniProt B0LAJ3 25-170); assay: ELISA
T5 construct: not shown: probably His as elsewhere

[5] = target: T6, recombinant hPD-1 (construct not stated) (human, UniProt Q15116 25-167, limits assumed); assay: ELISA
T6 construct: also called huPD-1; Human PD1

[6] = target: T7, hPD-1 Avi-Tag Biotin (AcroBiosystems PD1-H82E4) (human, UniProt Q15116 25-167, biotin on Avi-Tag); assay: SPR, Ab captured, PD-1 analyte
T7 construct: bought; also called human PD-1
Procedure: Anti-human Fc IgG (Jackson) was immobilized on amine reactive CM5 chips (GE Healthcare) using 1×HBS-EP+ running buffer (GE Healthcare). The test antibodies were captured at flow rate 10 μl/min with 30 s contact time. […] Regeneration was carried out with 10 mM Glycine-HCl, pH 1.5 at flow rate 10 μL/min. This protocol is to be used, unless stated otherwise, in determination of Kd wherever used to define the KD of antibodies specified herein, with adaptions where necessary with regard to the nature of the interaction partners. […]

[7] = target: T2, cynoPD-1 His (AcroBiosystems PD1-C5223); assay: SPR; second ka column, taken as cynoPD-1
Procedure: (§1) Anti-human Fc IgG (Jackson) was immobilized on amine reactive CM5 chips (GE Healthcare) using 1×HBS-EP+ running buffer (GE Healthcare). The test antibodies were captured at flow rate 10 μl/min with 30 s contact time. […] Regeneration was carried out with 10 mM Glycine-HCl, pH 1.5 at flow rate 10 μL/min. This protocol is to be used, unless stated otherwise, in determination of Kd wherever used to define the KD of antibodies specified herein, with adaptions where necessary with regard to the nature of the interaction partners.
Every position in the antibody VH and VL-CDRs was mutated by PCR using a mutagenic primer containing a degenerate codon NNS at a specific CDR position, introducing a combination of all 20 amino acids. The library of single mutants was screened by scFv capture ELISA using a redundancy factor of 4 (on 96-well plate er position). Clones displaying ≥2× ELISA signal compared to the wild-type scFv were sequenced, and clones with unique sequences were re-grown, re-screened by capture ELISA and ranked by dose-dependent ELISA on human and cyno antigens, and by FACS using human antigen expressing cells. Affinity improving mutations were used to design a combinatorial library using the Kunkel method. The library was screened by scFv capture ELISA using the redundancy factor of 4 (4× number of combinations). Clones displaying ≥2× ELISA signal compared to the wild-type scFv were sequenced, and clones with unique sequences were re-grown, re-screened by capture ELISA and ranked by dose-dependent ELISA on human and cyno antigens, and by FACS using human antigen expressing cells.

[8] = target: T1, cynomolgus PD-1 expressed on cells; assay: flow cytometry, CHO-S Cyno-PD-1
[9] = target: T2, cynoPD-1 His (AcroBiosystems PD1-C5223); assay: SPR, Ab captured, PD-1 analyte
Procedure: as §1

[10] = target: T7, hPD-1 Avi-Tag Biotin (AcroBiosystems …); assay: SPR, Ab captured, PD-1 analyte; remark: listed apart in the source
Procedure: as §1

[11] = target: T4, human PD-1 expressed on cells; assay: flow cytometry, CHO-S hPD-1
Procedure: CHO-S hPD-1 cells were incubated with a 5-fold serial dilution of the indicated humanized antibodies. Antibody binding was detected with goat anti-human IgG-PE. MFI were plotted over the antibody concentration to obtain EC50 values.

[12] = target: T4, human PD-1 expressed on cells; assay: flow cytometry, CHO-S hPD-1; remark: listed apart in the source
[13] = target: T6, recombinant hPD-1 (construct not stated); assay: BLI, supernatants
Description: In order to remove an N-glycosylation site present in the CDR-L1, mutations were inserted in the CDR-L1 of 21A08. The first asparagine ([…], N) in CDR-L1, was replaced by a serine (Ser, S), Glutamine (Gln, Q), or Alanine (Ala, A).

T2 sequence (B0LAJ3 entry or part of it limits assumed): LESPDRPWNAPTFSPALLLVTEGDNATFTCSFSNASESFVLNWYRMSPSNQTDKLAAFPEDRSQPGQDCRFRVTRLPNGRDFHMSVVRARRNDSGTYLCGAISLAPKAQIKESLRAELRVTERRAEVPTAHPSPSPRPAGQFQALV
T7 sequence (Q15116 25-167 limits assumed): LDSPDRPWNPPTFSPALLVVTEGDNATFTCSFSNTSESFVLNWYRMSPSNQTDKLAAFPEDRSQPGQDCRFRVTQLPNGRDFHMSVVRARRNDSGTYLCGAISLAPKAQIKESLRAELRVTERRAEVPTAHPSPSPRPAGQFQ
T6 sequence (Q15116 25-167 limits assumed): as above
T3 sequence (Q15116 25-167 limits assumed): as above
T4 sequence (Q15116 25-288): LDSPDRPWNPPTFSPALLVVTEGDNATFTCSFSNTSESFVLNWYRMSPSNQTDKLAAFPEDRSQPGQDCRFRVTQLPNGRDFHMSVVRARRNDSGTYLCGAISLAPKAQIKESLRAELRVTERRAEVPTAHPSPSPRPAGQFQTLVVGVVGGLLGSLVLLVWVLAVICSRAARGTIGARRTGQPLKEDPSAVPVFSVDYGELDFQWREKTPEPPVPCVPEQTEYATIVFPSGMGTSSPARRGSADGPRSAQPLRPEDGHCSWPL
T1 sequence (B0LAJ3 entry or part of it limits assumed): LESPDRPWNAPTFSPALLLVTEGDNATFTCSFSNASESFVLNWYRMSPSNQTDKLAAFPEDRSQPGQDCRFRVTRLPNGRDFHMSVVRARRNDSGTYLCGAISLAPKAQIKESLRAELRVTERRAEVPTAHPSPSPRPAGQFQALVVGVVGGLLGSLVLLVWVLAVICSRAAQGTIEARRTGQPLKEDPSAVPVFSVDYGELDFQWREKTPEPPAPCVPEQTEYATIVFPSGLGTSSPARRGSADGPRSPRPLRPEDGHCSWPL

Binder	EC50 [1] [nM]	Kd [2] [nM]	koff [2] [s⁻¹]	kon [2] [M⁻¹ s⁻¹]	Kd (hPD-1 His-tagged) [nM]	koff (hPD-1 His-tagged) [s⁻¹]	kon (hPD-1 His-tagged) [M⁻¹ s⁻¹]	EC50 [3] [nM]	also measured
56H02 (antibody, V domains shown, used with CH1,2,3 and corresponding CL) VH: QVQLVQSGAEVKKPGASVKVSCKASGYTFTSYFMHWVRQAPGQGLEWMGLINPDGGNTDYAQKFQGRVTMTRDTSTSTVYMELSSLRSEDTAVYYCARDGNYYDSSGYYYPDAFDIWGQGTMVTVSS VL: SSELTQDPAVSVALGQTVRITCQGDSLRRFYASWYQQKPGQAPVIVIYGKDNRPSGTPDRFSGSTSGNTASLTITGAQAEDEADYYCNSRDSSGTHVVFGGGTKLTVL	0.0881	0.262	3.67e-05	140000	0.228	3.79e-05	166000	0.0921	–
39F23 (antibody, V domains shown, used with CH1,2,3 and corresponding CL) VH: QVQLVESGGGVGQPGRSLRLSCAASGFTFSNYGMHWVRQAPGKGLEWVAVIWYDGSKKYYADSVKGRFTISRDNSKNTLYLQMNSLRVEDTAVYYCVGNSGHWGQGTLVTVSS VL: DIVMTQTPLSLPVTPGEPASISCRSSQSLLDSDDGNTYLDWYLQKPGQSPQLLIYTLSYRASGVPDRFSGSGSGTDFTLKISRVEAEDVGVYYCMQCIEFPHTFGGGTKVEIK	0.0289	1.3	0.000294	227000	1.03	0.000253	244000	0.0189	–
z2-XVT458 (antibody, IgG1, V domains shown, full hIgG1; also called XVT458-z2; GH + T071V) VH: QVQLVQSGAEVKKPGASVKVSCKASGYTFTNFYIHWVRQAPGQGLEWMGSIYPNYGDTAYNQKFKDRVTMTVDTSTSTAYMELRSLRSDDTAVYYCARGYSYAMDYWGQGTTVTVSS VL: DIQMTQSPSSVSASVGDRVTITCSASQGISGDLNWYQQKPGKAPKLLIYHTSSLHSGVPSRFSGSGSGTDFTLTISSLQPEDFATYYCQYYSKDLLTFGGGTKLEIK	–	–	–	–	–	–	–	–	EC50 [4]: 0.4 nM; Max OD [4]: 3.32 OD; EC50 [5]: 0.71 nM; Max OD [5]: 2.91 OD; Kd [6]: 12.5 nM; koff [6]: 0.00124 s⁻¹; kon [6]: 99200 M⁻¹ s⁻¹; kon [7]: 73000 M⁻¹ s⁻¹; Max MFI [8]: 109 MFI; Kd [9]: 54.2 nM; koff [9]: 0.0031 s⁻¹; kon [9]: 57200 M⁻¹ s⁻¹; Kd [10]: 14 nM; koff [10]: 0.00127 s⁻¹; kon [10]: 90700 M⁻¹ s⁻¹; EC50 [11]: 4.15 nM; Top MFI [11]: 45500 MFI; EC50 [12]: 5.86 nM; Max MFI [12]: 40700 MFI
XVT458-z2-m6 (antibody, V domains shown, IgG format; also called z2_XVT458m6) VH: QVQLVQSGAEVKKPGASVKVSCKASGYTFTNFYIHWVRQAPGQGLEWMGSIYPNYGITAYNQKFKDRVTMTVDTSTSTAYMELRSLRSDDTAVYYCARGYSYAMDYWGQGTTVTVSS VL: DIQMTQSPSSVSASVGDRVTITCSASQGISGDLNWYQQKPGKAPKLLIYHTSQLHSDVPSRFSGSGSGTDFTLTISSLQPEDFATYYCQGYSKDLLTFGGGTKLEIK	–	–	–	–	–	–	–	–	EC50 [4]: 0.071 nM; Max OD [4]: 3.69 OD; EC50 [5]: 0.064 nM; Max OD [5]: 3.49 OD; Kd [6]: 0.439 nM; koff [6]: 0.000101 s⁻¹; kon [6]: 231000 M⁻¹ s⁻¹; kon [7]: 213000 M⁻¹ s⁻¹; Max MFI [8]: 59 MFI; EC50 [12]: 1.56 nM; Max MFI [12]: 39500 MFI
21A08 (antibody, V domains shown, used with CH1,2,3 and CL(lambda); also called clone 21A08) VH: EVQLLESGGGLVQPGGSLRLSCAASGFTFSINAMTWVRQAPGKGLEWVSTISGSGFSTYYADSLKGRFTISRDNSKNTLYLQMNSLRAEDTAVYYCAKEVYGDYWGQGTLVTVSS VL: not shown	0.195	1.24	8.25e-05	66700	0.00927	6.39e-07	69000	0.243	Kd [13]: 2.17 nM; koff [13]: 0.00014 s⁻¹
22F13 (antibody, V domains shown, used with CH1,2,3 and corresponding CL) VH: EVQLLESGGGLVQPGGSLRLSCAASGFTFSISAMTWVRQAPGKGLEWVSTISGSGGSTYYSDSVKGRFTISRDNSKNTLYLQINSLRADDTAVYYCAKEVYGDYWGQGTLVTVSS VL: not shown	0.107	8.45	0.000838	99200	1.41	0.000132	94000	0.2	–
25I20 (antibody, V domains shown, used with CH1,2,3 and corresponding CL; also called 25120) VH: EVQLLESGGNLVQPGGSLRLSCAASGFTFSTYAMSWVRQAPGKGLEWVSTISGTGYSTYFADSVKGRFTISRDNSKNTLFLQMNSLRAEDTAVYYCAKEVYGDYWGQGTLVTVSS VL: not shown	0.31	8.38	0.000783	93400	1.15	0.000101	87500	0.179	–
20H02 (antibody, V domains shown, used with CH1,2,3 and corresponding CL) VH: EVLLVESGGGLVQPGGSLRLSCAASGFTFSSYSMNWVRQAPGKGLEWVSFISSSSPTLYYADSVKGRFTISRDNAKNSLYLQMNSLRDEDTAVYYCARQGLTPFDYWGQGTLVTVSS VL: EIVMTQSPATLSVFPGERATLSCRASQSVSSYLAWYQQKPGQAPRLLIYGASTRATGIPARVSGSGSGTEFILTISSLQSEDFAVYYCQQYNNWPYTFGQGTKLEIK	0.231	6.39	0.000463	72500	2.43	0.000221	90900	0.503	–
40B20 (antibody, V domains shown, used with CH1,2,3 and corresponding CL) VH: EVQLVESGGGLVQPGGSLRLSCAASGFTFSSYSMNWVRQAPGKGLQWVSYITSSSNTMYYADSVKGRFTISRDNAKNSLYLQMNSLRDEDTAVYYCASIVGAPFDYWGQGTLVTVSS VL: EIVMTQSPATLSVSPGERATLSCRASQSVSSSLAWYQQKPGQAPRLLIYGASTRATGIPARFSGSGSGTEFTLTISSLQSEDFAAYYCQQYNNWPFTFGPGTKVDIK	0.0958	7.51	0.000505	67300	9.61	0.000773	80500	0.162	–
